T1: human IL-12 (human, UniProt P29459 23-219; P29460 23-328)
T1 construct: also called interleukin 12
T1 sequence (looked up) 1: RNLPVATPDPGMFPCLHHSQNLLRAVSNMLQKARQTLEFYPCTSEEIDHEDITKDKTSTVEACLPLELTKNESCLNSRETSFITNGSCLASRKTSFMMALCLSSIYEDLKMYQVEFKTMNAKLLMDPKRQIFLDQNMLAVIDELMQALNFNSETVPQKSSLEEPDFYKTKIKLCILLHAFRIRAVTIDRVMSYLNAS
T1 sequence (looked up) 2: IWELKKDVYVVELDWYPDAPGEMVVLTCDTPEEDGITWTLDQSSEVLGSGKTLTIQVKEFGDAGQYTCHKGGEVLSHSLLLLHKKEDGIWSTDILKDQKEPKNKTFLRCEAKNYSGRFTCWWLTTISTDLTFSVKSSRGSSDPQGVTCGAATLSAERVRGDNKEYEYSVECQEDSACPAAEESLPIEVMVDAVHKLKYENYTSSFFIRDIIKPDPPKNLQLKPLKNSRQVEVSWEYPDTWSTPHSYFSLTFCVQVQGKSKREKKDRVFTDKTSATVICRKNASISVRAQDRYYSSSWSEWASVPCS


Key:
[1] = target: human neonatal Fc receptor (FcRn), non-covalent complex with beta-2-microglobulin (human) (UniProt P55899); assay: FcRn affinity column (Example 2), Fc-region after IdeS cleavage
[2] = target: human neonatal Fc receptor (FcRn), non-covalent complex with beta-2-microglobulin (human) (UniProt P55899); assay: FcRn affinity column, run of the Bevacizumab comparison
[3] = target: human neonatal Fc receptor (FcRn), non-covalent complex with beta-2-microglobulin (human) (UniProt P55899); assay: SPR, huFcRn immobilised, pH 6.0, steady state affinity normalised to Ustekinumab; SPR steady state, pH 6.0; the reference, set to 1
human IL-12 [4] = target: T1, human IL-12; assay: IL-12 ELISA, concentration calculated from the fit of the Briakinumab calibration curve
[5] = target: human neonatal Fc receptor (FcRn), non-covalent complex with beta-2-microglobulin (human) (UniProt P55899); assay: SPR, FcRn, buffer pH 6.0
human IL-12 [6] = target: T1, human IL-12; assay: SPR, IL-12
[7] = target: human neonatal Fc receptor (FcRn), non-covalent complex with beta-2-microglobulin (human) (UniProt P55899); assay: SPR, FcRn, buffer pH 6.4
[8] = target: human neonatal Fc receptor (FcRn), non-covalent complex with beta-2-microglobulin (human) (UniProt P55899); assay: FcRn affinity column (Example 2)
[9] = target: human neonatal Fc receptor (FcRn), non-covalent complex with beta-2-microglobulin (human) (UniProt P55899); assay: FcRn affinity column, Example 3 method, elution buffer 20 mM Tris/HCl, 400 mM NaCl, pH 8.8; FcRn affinity column, Example 3, high salt 400 mM NaCl
[10] = target: human neonatal Fc receptor (FcRn), non-covalent complex with beta-2-microglobulin (human) (UniProt P55899); assay: SPR, huFcRn immobilised, pH 6.0, steady state affinity normalised to Ustekinumab
[11] = target: human neonatal Fc receptor (FcRn), non-covalent complex with beta-2-microglobulin (human) (UniProt P55899); assay: SPR, FcRn, buffer pH 6.6
[12] = target: human neonatal Fc receptor (FcRn), non-covalent complex with beta-2-microglobulin (human) (UniProt P55899); assay: FcRn affinity chromatography, pH gradient (Example 2), pH measured offline; FcRn affinity column, Example 2; elution pH at 84.3 min
[13] = target: human neonatal Fc receptor (FcRn), non-covalent complex with beta-2-microglobulin (human) (UniProt P55899); assay: FcRn affinity chromatography, pH gradient 5.5-8.8, 140 mM NaCl (Example 2); FcRn affinity column, Example 2, 140 mM NaCl, pH gradient; complete antibody
[14] = target: human neonatal Fc receptor (FcRn), non-covalent complex with beta-2-microglobulin (human) (UniProt P55899); assay: FcRn affinity chromatography, pH gradient 5.5-8.8, 140 mM NaCl (Example 2)
human IL-12 [15] = target: T1, human IL-12; assay: IL-12 ELISA, absorbance against antibody concentration
[16] = target: human neonatal Fc receptor (FcRn), non-covalent complex with beta-2-microglobulin (human) (UniProt P55899); assay: FcRn affinity chromatography, pH gradient (Example 2), pH measured offline; FcRn affinity column, Example 2; elution pH at 93.7 min
[17] = target: human neonatal Fc receptor (FcRn), non-covalent complex with beta-2-microglobulin (human) (UniProt P55899); assay: SPR, FcRn, buffer pH 7.0
[18] = target: human neonatal Fc receptor (FcRn), non-covalent complex with beta-2-microglobulin (human) (UniProt P55899); assay: SPR, huFcRn immobilised, pH 6.0, steady state affinity normalised to Ustekinumab; SPR steady state, pH 6.0, KD relative to Ustekinumab = 1
[19] = target: human neonatal Fc receptor (FcRn), non-covalent complex with beta-2-microglobulin (human) (UniProt P55899); assay: SPR, FcRn, buffer pH 6.8
[20] = target: human neonatal Fc receptor (FcRn), non-covalent complex with beta-2-microglobulin (human) (UniProt P55899); assay: FcRn affinity chromatography, pH gradient (Example 2), pH measured offline

Row | FcRn column retention time [2] [min] | window of IL-12 binding relative to Briakinumab (Briakinumab=100%) (human IL-12 [4]) [%] | Kd (human IL-12 [6]) [nM] | koff (human IL-12 [6]) [s⁻¹] | kon (human IL-12 [6]) [M⁻¹ s⁻¹] | FcRn column retention time [8] [min] | rel. KD (Ustekinumab = 1) [10] | FcRn column retention time [14] [min] | Molecule | also measured
1 | – | – | – | – | – | – | – | – | IdeS-cleaved Fc-region of Ustekinumab | FcRn column retention time [1]: 85.2 min
2 | – | – | – | – | – | – | – | – | IdeS-cleaved Fc-region of Briakinumab | FcRn column retention time [1]: 85.7 min
3 | 84.7 | – | – | – | – | – | – | – | Bevacizumab-wild-type (antibody) | –
4 | 83.6 | ≤ 20 | 0.2 | 0.00018 | 900000 | 84.3 | 1 | – | Ustekinumab (antibody, V domains shown, Fully human IgG1; also called CNTO 1275; Stelara) VH: EVQLVQSGAEVKKPGESLKISCKGSGYSFTTYWLGWVRQMPGKGLDWIGIMSPVDSDIRYSPSFQGQVTMSVDKSITTAYLQWNSLKASDTAMYYCARRRPGQGYFDFWGQGTLVTVSS VL: DIQMTQSPSSLSASVGDRVTITCRASQGISSWLAWYQQKPEKAPKSLIYAASSLQSGVPSRFSGSGSGTDFTLTISSLQPEDFATYYCQQYNIYPYTFGQGTKLEIK | rel. KD (Ustekinumab = 1) [3]: 1; Kd [5]: 390 nM; Kd [7]: 1000 nM; FcRn column retention time [9]: 80.4 min; Kd [11]: 3100 nM; FcRn column elution pH [12]: 7.4 pH; FcRn column retention time [13]: 84.3 min
5 | – | – | 0.24 | 0.00041 | 1.7e+06 | – | 1 | 84.3 | mAb 1 (antibody, V domains shown, Fv domain of Ustekinumab on the constant parts of Briakinumab (IgG1)) VH: EVQLVQSGAEVKKPGESLKISCKGSGYSFTTYWLGWVRQMPGKGLDWIGIMSPVDSDIRYSPSFQGQVTMSVDKSITTAYLQWNSLKASDTAMYYCARRRPGQGYFDFWGQGTLVTVSS VL: DIQMTQSPSSLSASVGDRVTITCRASQGISSWLAWYQQKPEKAPKSLIYAASSLQSGVPSRFSGSGSGTDFTLTISSLQPEDFATYYCQQYNIYPYTFGQGTKLEIK | –
6 | – | – | – | – | – | – | 0.2 | 92.4 | mAb 3 (antibody, V domains shown, Heavy chains of Ustekinumab and light chains of Briakinumab (whole chains)) VH: EVQLVQSGAEVKKPGESLKISCKGSGYSFTTYWLGWVRQMPGKGLDWIGIMSPVDSDIRYSPSFQGQVTMSVDKSITTAYLQWNSLKASDTAMYYCARRRPGQGYFDFWGQGTLVTVSS VL: QSVLTQPPSVSGAPGQRVTISCSGSRSNIGSNTVKWYQQLPGTAPKLLIYYNDQRPSGVPDRFSGSKSGTSASLAITGLQAEDEADYYCQSYDRYTHPALLFGTGTKVTVLG | binding result (human IL-12 [15]): no binding (tested: 12 ng/mL)
7 | – | ≤ 20 | 0.25 | 0.0003 | 1.2e+06 | – | 0.3 | 93 | mAb 2 (antibody, V domains shown, Fv domain of Briakinumab on the Ustekinumab constant domains (IgG1)) VH: QVQLVESGGGVVQPGRSLRLSCAASGFTFSSYGMHWVRQAPGKGLEWVAFIRYDGSNKYYADSVKGRFTISRDNSKNTLYLQMNSLRAEDTAVYYCKTHGSHDNWGQGTMVTVSS VL: QSVLTQPPSVSGAPGQRVTISCSGSRSNIGSNTVKWYQQLPGTAPKLLIYYNDQRPSGVPDRFSGSKSGTSASLAITGLQAEDEADYYCQSYDRYTHPALLFGTGTKVTVLG | –
8 | 91.6 | ≤ 20 | 0.07 | 6e-05 | 800000 | 93.7 | 0.2 | – | Briakinumab (antibody, V domains shown, Fully human IgG1; also called ABT 874; J 695) VH: QVQLVESGGGVVQPGRSLRLSCAASGFTFSSYGMHWVRQAPGKGLEWVAFIRYDGSNKYYADSVKGRFTISRDNSKNTLYLQMNSLRAEDTAVYYCKTHGSHDNWGQGTMVTVSS VL: QSVLTQPPSVSGAPGQRVTISCSGSRSNIGSNTVKWYQQLPGTAPKLLIYYNDQRPSGVPDRFSGSKSGTSASLAITGLQAEDEADYYCQSYDRYTHPALLFGTGTKVTVLG | Kd [5]: 90 nM; FcRn column elution pH [16]: 7.9 pH; Kd [17]: 4200 nM; Kd [7]: 100 nM; rel. KD (Ustekinumab = 1) [18]: 0.2; Kd [19]: 600 nM; FcRn column retention time [9]: 83.1 min; Kd [11]: 360 nM; FcRn column retention time [13]: 93.7 min
9 | – | – | 0.07 | 9.1e-05 | 1.2e+06 | 90.1 | 0.4 | 90.1 | mAb 8 (antibody, IgG1, V domains shown, Briakinumab variant (IgG1) with five positively charged heavy chain residues mutated; also called Briakinumab with HC mutations R16A, R19A, K57A, K64A, R83A) VH: QVQLVESGGGVVQPGASLALSCAASGFTFSSYGMHWVRQAPGKGLEWVAFIRYDGSNAYYADSVAGRFTISRDNSKNTLYLQMNSLAAEDTAVYYCKTHGSHDNWGQGTMVTVSS VL: QSVLTQPPSVSGAPGQRVTISCSGSRSNIGSNTVKWYQQLPGTAPKLLIYYNDQRPSGVPDRFSGSKSGTSASLAITGLQAEDEADYYCQSYDRYTHPALLFGTGTKVTVL | FcRn column elution pH [20]: 7.7 pH
10 | – | – | 0.01 | 0.00013 | 8.8e+06 | 86.2 | 0.4 | 86.2 | mAb 9 (antibody, IgG1, V domains shown, Briakinumab variant (IgG1) with three positively charged residues of the light chain CDRs mutated to alanine; also called Briakinumab with LC mutations R27A, R55A, R94A) VH: QVQLVESGGGVVQPGRSLRLSCAASGFTFSSYGMHWVRQAPGKGLEWVAFIRYDGSNKYYADSVKGRFTISRDNSKNTLYLQMNSLRAEDTAVYYCKTHGSHDNWGQGTMVTVSS VL: QSVLTQPPSVSGAPGQRVTISCSGSASNIGSNTVKWYQQLPGTAPKLLIYYNDQAPSGVPDRFSGSKSGTSASLAITGLQAEDEADYYCQSYDAYTHPALLFGTGTKVTVL | FcRn column elution pH [20]: 7.5 pH
